Measurements reported in paper PMC9135708 (2022).

How the values were obtained:
Assay in all cases: BLI
AKBR-5 = target: AKBR-5
AKBR-1 = target: AKBR-1
TY01 = target: TY01
TY19 = target: TY19
TY07 = target: TY07

B1: Plasmodium falciparum TRAP ectodomain (PfTRAP) (domain or fragment)
chain: RDVQNNIVDEIKYSEEVCNDQVDLYLLMDCSGSIRRHNWVNHAVPLAMKLIQQLNLNDNAIHLYVNVFSNNAKEIIRLHSDASKNKEKALIIIRSLLSTNLPYGRTNLTDALLQVRKHLNDRINRENANQLVVILTDGIPDSIQDSLKESRKLSDRGVKIAVFGIGQGINVAFNRFLVGCHPSDGKCNLYADSAWENVKNVIGPFMKAVCVEVEKTASCGVWDEWSPCSVTCGKGTRSRKREILHEGCTSEIQEQCEEERCPPKWEPLDVPDEPEDDQPRPRGDNSSVQKPEENIIDNNPQEPSPNPEEGKDENPNGFDLDENPENPPNPDIPEQKPNIPEDSEKEVPSDVPKNPEDDREENFDIPKKPENKHDNQNNLPNDKSDRNIPYSPLPPKVLDNERKQSDPQSQDNNGNRHVPNSEDRETRPHGRNNENRSYNRKYNDTPKHPEREEHEKPDNNKKKGESDNKYK
modifications: site-specific biotinylation using BirA ligase, when required
Question: With B1 as the binder, how does the Kd (AKBR-5) read?
Answer: 0.0529 µM

Question: And the koff (AKBR-5)?
Answer: 0.00611 s⁻¹

Question: And the Kd (AKBR-1)?
Answer: 0.194 µM

Question: What about the koff (AKBR-1) of the same binder?
Answer: 0.00368 s⁻¹

B2: Plasmodium yoelii TRAP ectodomain (PyTRAP) (domain or fragment)
chain: NGQETLDEIKYSEEVCTEQIDIHILLDGSGSIGYSNWKAHVIPMLNTLVDNLNISNDEINVSLTLFSTNSRELIKLKGYGSTSKDSLRFILAHLQNNYSPNGNTNLTSALLVVDTLINERMYRPDAIQLAIILTDGIPNDLPRSTAVVHQLKRKHVNVAIIGVGAGVNNEYNRILVGCDRYAPCPYYSSGSWNEAQNMIKPFLTKVCQEVERIAHCGKWEEWSECSTTCDEGRKIRRRQILHPGCVSEMTTPCKVRDCPQIPIPPVIPNKIPEKPSNPEEPVNPNDPNDPNNPNNPNNPNNPNNPNNPNNPNNPNNPNNPNNPNNPNNPNNPNNPNNPNNPNNPNNPNNPNNPNNPNNPNDPSNPNNPNPKKRNPKRRNPNKPKPNKPNPNKPNPNEPSNPNKPNPNEPSNPNKPNPNEPSNPNKPNPNEPSNPNKPNPNEPLNPNEPSNPNEPSNPNAPSNPNEPSNPNEPSNPNEPSNPNEPSNPNEPSNPKKPSNPNEPSNPNEPLNPNEPSNPNEPSNPNEPSNPEEPSNPKEPSNPNEPSNPEEPNPEEPSNPKEPSNPEEPINPEELNPKEPSNPEESNPKEPINPEESNPKEPINPEDNENPLIIQDEPIEPRNDSNVIPILPIIPQKGNNIPSNLPENPSDSEVEYPRPNDNGENSNNTMKSKKNIPNEPIPSPGDNPYKGHEERIPKPHRSNDDYVYDNNVNKNNKDEPEIPNNEYEEDKNKNQSKSNNGYK
modifications: site-specific biotinylation using BirA ligase, when required
Question: B2 was tested. Which Kd (TY01) did it give?
Answer: 0.00165 µM

Question: And the koff (TY01)?
Answer: 0.000498 s⁻¹

Question: And the Kd (TY19)?
Answer: 0.307 µM

Question: What about the koff (TY19) of the same binder?
Answer: 0.0495 s⁻¹

Question: And the Kd (TY07)?
Answer: 0.0265 µM

Question: What about the koff (TY07) of the same binder?
Answer: 0.00397 s⁻¹
